The values that follow come from doi:10.1101/2025.03.26.645513v1.

The subject of the data set is CC(=O)OC[C@H](N)C(=O)O. The data set is described as follows: purified protein. To be noted: 30 mM Na2S, MOPS, 37 °C, no glycerol, cooperative.

NgCysK (Neisseria gonorrhoeae FA 1090) came in with a K0.5 of 1.541 ± 0.306 mM.
